Reference: US20210047418A1 (VESTLANDETS INNOVASJONSSELSKAP, published 2021)

Legend:
human integrin α11-EGFP = biological target: T1, human integrin α11-EGFP (human, UniProt Q9UKX5 23-1188); assay: Western blot on C2C12-hu α11-EGFP lysate (FIG. 1D)
T1 construct: whole, on cells; Fusion of about 180 kDa by the legend; In the Western blot it stood as denatured protein from cell lysate; also called hu α11-EGFP; C2C12-hu α11-EGFP; not shown: EGFP tag
T1 sequence (looked up): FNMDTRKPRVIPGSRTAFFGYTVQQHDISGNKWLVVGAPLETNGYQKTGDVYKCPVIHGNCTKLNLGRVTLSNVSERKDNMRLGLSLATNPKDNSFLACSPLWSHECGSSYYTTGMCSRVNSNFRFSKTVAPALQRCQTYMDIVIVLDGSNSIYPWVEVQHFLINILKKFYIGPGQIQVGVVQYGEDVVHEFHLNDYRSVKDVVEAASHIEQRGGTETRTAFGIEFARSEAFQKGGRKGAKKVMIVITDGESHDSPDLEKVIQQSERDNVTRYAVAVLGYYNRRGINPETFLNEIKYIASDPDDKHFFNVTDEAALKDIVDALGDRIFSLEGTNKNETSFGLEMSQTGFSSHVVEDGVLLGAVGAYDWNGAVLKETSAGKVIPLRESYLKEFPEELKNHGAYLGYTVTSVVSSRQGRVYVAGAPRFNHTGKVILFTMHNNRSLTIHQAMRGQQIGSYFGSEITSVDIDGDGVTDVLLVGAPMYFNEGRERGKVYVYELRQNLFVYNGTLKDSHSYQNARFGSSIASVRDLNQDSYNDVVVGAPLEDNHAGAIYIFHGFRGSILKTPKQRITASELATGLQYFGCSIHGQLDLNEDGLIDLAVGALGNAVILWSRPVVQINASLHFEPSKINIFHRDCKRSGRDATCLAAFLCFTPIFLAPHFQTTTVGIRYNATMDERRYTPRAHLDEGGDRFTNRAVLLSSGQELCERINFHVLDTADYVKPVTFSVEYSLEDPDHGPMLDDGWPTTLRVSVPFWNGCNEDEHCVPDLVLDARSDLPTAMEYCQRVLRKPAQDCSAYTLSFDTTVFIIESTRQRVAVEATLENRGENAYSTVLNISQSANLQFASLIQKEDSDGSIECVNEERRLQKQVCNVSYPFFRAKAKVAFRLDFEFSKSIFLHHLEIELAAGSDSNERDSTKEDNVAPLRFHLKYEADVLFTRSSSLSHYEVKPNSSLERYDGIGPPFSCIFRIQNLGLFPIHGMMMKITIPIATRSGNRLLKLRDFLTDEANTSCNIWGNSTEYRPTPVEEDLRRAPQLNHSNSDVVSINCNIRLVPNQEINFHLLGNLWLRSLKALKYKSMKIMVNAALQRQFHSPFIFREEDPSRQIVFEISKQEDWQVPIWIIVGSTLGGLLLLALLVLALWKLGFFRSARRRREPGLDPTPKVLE

[1] = biological target: T2, human integrin α11 subunit (human, UniProt Q9UKX5 23-1188); assay: immunoprecipitation from C2C12-α11 cell lysate, Western blot detection with the polyclonal α11 antibody (FIG. 1C)
T2 construct: whole, on cells; In C2C12-α11 cells and their lysates the human α11 chain is present as α11β1 heterodimer (the legend says 'Immunoprecipitation of integrin α11β1'); the β1 partner in the mouse cells is not described; In the staining and blot experiments cells were methanol fixed, lysed or the tissue was formalin fixed and paraffin embedded; also called alpha-11 integrin subunit; integrin chain α11
T2 sequence (looked up): T1 sequence (looked up)
Procedure: FIG. 1. Immunological characterization of 210F4B6A4 mAb [0019] A-B. C2C12 mouse myoblast cells expressing human integrin α11-EGFP or WT (wildtype) C2C12 cells were stained with 210F4B6A4 mAb for 1 hour at 4° C. Cells were then washed and stained with goat anti-mouse R-Phycoerythrin IgG. Samples were analysed by flow cytometry using Intellicyt iQue and fluorescence intensity was measured. [0020] C. Immunoprecipitation (IP) of integrin α11β1 with the 210F4B6A4 mAb and the polyclonal α11 antibody (α11 pAb)[5]. Protein bands of integrin chain α11 at the expected size after immunoprecipitation using α11 antibodies followed by Western blotting and detection using the polyclonal α11 antibody. [0021] D. Western-blotting (WB) using the α11 210F4B6A4 mAb on C2C12-hu α11-EGFP lysate, shown is the protein band of expected size of aα11-EGFP (180 kDa). [0022] E. C2C12 mouse myoblast cells expressing human integrin α11 were allowed to attach on collagen I-cocated coverslips for 2 hours, cell were then fixed with methanol and incubated with 210F4B6A4 mAb or control IgG. Bound antibody was detected using goat anti-mouse Alexa Fluor 594. Integrin α11 staining in cell focal adhesions is indicated by white arrowheads. […]

B1: monoclonal mouse anti-human integrin alpha-11 antibody clone 210 F4B6A4 produced by the hybridoma deposited as DSM ACC3320 (antibody, V domains shown)
VH: EVQLQQSGAELVRPGASVKVSCTASGFNIKDDYIHWMRRRPAQGLEWIGWIDPENGDTEYASNFQGKATTTVDVSSNTAYLQLSRLTSEDTAIYYCSREYAYWGQGTLVTVSA
VL: DVVMTQTPLSLPVSLGDQASISCRSSQSLLYSNGNTYLQWYLQKPGQSPKLLIYRASNRFSGVPDRFSGSGSGTDFTLKISRVEAEDLGVYFCSQSTHVPWTFGGGTKLEIK
notes: Mouse monoclonal antibody from hybridoma (used partly as hybridoma supernatant); also called 210F4B6A4 mAb; F210F4B6A4
binding result (human integrin α11-EGFP): binds
binding result [1]: binds
